Test results from PMC9352680, “A comprehensive thermodynamic model for RNA binding by the Saccharomyces cerevisiae Pumilio protein PUF4”.

T1: PUF4 RNA-binding domain (Saccharomyces cerevisiae, UniProt P25339 537-888)
T1 sequence: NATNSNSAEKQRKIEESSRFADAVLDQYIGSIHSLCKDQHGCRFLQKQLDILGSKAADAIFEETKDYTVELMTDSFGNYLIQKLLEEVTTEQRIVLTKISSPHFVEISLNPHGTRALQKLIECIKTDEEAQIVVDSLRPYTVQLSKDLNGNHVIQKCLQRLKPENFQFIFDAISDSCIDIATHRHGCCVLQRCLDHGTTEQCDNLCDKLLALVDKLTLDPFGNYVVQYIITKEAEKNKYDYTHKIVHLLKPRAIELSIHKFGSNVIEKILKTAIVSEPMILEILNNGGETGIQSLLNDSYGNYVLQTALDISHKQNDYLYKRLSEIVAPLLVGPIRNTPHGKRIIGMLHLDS


Molecular target: T1, PUF4 RNA-binding domain
Assay: Mg; RNA-MaP; 20 mM Na-HEPES pH 7.4, 30 mM KOAc, 0.75 mM MgCl2, 0.1% Tween-20, 5% glycerol, 0.1 mg/mL BSA, 2 mM DTT; 25 C; 0.0125-409.6 nM protein
Conditions: tags: N-His6-TEV cleaved; C-SNAP kept, Cy3B-labelled; label: tethered on chip by stalled RNA polymerase

| Binder | Kd |
| --- | --- |
| UCUCUUUGUAGUUCAUCUCUU (ssRNA) [Ic_S1_P4E.1_K4.1_C4.1_H4.1_A4.1_[T5G]_[A6T]_F4.1_[T8C]_T4.1] | 1.57 µM |
| UCUCUUUGUAGUUACUCUCUU (ssRNA) [Ic_S1_P4E.1_K4.1_C4.1_H4.1_A4.1_[T5G]_[A6T]_F4.1_[T8A]_[A9C]_T4.1] | 0.982 µM |
| UCUCUUUGUAGUUAUUCUCUU (ssRNA) [Ic_S1_P4E.1_K4.1_C4.1_H4.1_A4.1_[T5G]_[A6T]_F4.1_[T8A]_[A9T]_T4.1] | 0.685 µM |
| UCUCUUUGUAGUUUGUCUCUU (ssRNA) [Ic_S1_P4E.1_K4.1_C4.1_H4.1_A4.1_[T5G]_[A6T]_F4.1_[A9G]_T4.1] | 0.287 µM |
| UCUCUUUGUAAAUAUCUCUU (ssRNA) [Ic_S1_P3E.1_K3.1_C3.1_H3.1_A3.1_[T5A]_F3.1_T3.1] | 0.028 µM |
| UCUCUUUGUAUAAUUCUCUU (ssRNA) [Ib_S1_P3E.1_K3.1_C3.1_H3.1_A3.1_F3.1_[T7A]_[A8T]_T3.1] | 0.00997 µM |
| UCUCUUUGUAGUUUCUCUCUU (ssRNA) [Ic_S1_P4E.1_K4.1_C4.1_H4.1_A4.1_[T5G]_[A6T]_F4.1_[A9C]_T4.1] | 0.365 µM |
| UCUCUUUGUAGUUUUUCUCUU (ssRNA) [Ic_S1_P4E.1_K4.1_C4.1_H4.1_A4.1_[T5G]_[A6T]_F4.1_[A9T]_T4.1] | 0.119 µM |
| UCUCUUUGUACGGCGUCUCUU (ssRNA) [Ic_S1_P4E.1_K4.1_C4.1_H4.1_A4.1_[T5C]_[A6G]_[T7G]_F4.1_[T8C]_[A9G]_T4.1] | > 2.3 µM |
| UCUCUUUGUACGGCCUCUCUU (ssRNA) [Ic_S1_P4E.1_K4.1_C4.1_H4.1_A4.1_[T5C]_[A6G]_[T7G]_F4.1_[T8C]_[A9C]_T4.1] | > 2.3 µM |
| UCUCUUUGUACGGCAUCUCUU (ssRNA) [Ic_S1_P4E.1_K4.1_C4.1_H4.1_A4.1_[T5C]_[A6G]_[T7G]_F4.1_[T8C]_T4.1] | 0.625 µM |
| UCUCUUUGUACGGUGUCUCUU (ssRNA) [Ic_S1_P4E.1_K4.1_C4.1_H4.1_A4.1_[T5C]_[A6G]_[T7G]_F4.1_[A9G]_T4.1] | 0.503 µM |
| UCUCUUUGUACGGUCUCUCUU (ssRNA) [Ic_S1_P4E.1_K4.1_C4.1_H4.1_A4.1_[T5C]_[A6G]_[T7G]_F4.1_[A9C]_T4.1] | 1.49 µM |
| UCUCUUUGUACGGUUUCUCUU (ssRNA) [Ic_S1_P4E.1_K4.1_C4.1_H4.1_A4.1_[T5C]_[A6G]_[T7G]_F4.1_[A9T]_T4.1] | 0.36 µM |
| UCUCUUUGUACGGUAUCUCUU (ssRNA) [Ic_S1_P4E.1_K4.1_C4.1_H4.1_A4.1_[T5C]_[A6G]_[T7G]_F4.1_T4.1] | 0.0134 µM |
| UCUCUUUGUACGCGCUCUCUU (ssRNA) [Ic_S1_P4E.1_K4.1_C4.1_H4.1_A4.1_[T5C]_[A6G]_[T7C]_F4.1_[T8G]_[A9C]_T4.1] | 1.13 µM |
| UCUCUUAGUAUACAUCUCUU (ssRNA) [Ib_S1_P3E.1_K3.1_C3.1_H3.1_[T1A]_A3.1_F3.1_[T7C]_T3.1] | > 2.3 µM |

| Binder | Kd |
| --- | --- |
| UCUCUUUGUACGCGUUCUCUU (ssRNA) [Ic_S1_P4E.1_K4.1_C4.1_H4.1_A4.1_[T5C]_[A6G]_[T7C]_F4.1_[T8G]_[A9T]_T4.1] | 1.44 µM |
| UCUCUUUGUACGCGAUCUCUU (ssRNA) [Ic_S1_P4E.1_K4.1_C4.1_H4.1_A4.1_[T5C]_[A6G]_[T7C]_F4.1_[T8G]_T4.1] | 0.727 µM |
| UCUCUUUGUACGCCCUCUCUU (ssRNA) [Ic_S1_P4E.1_K4.1_C4.1_H4.1_A4.1_[T5C]_[A6G]_[T7C]_F4.1_[T8C]_[A9C]_T4.1] | 0.879 µM |
| UCUCUUUGUACGCCUUCUCUU (ssRNA) [Ic_S1_P4E.1_K4.1_C4.1_H4.1_A4.1_[T5C]_[A6G]_[T7C]_F4.1_[T8C]_[A9T]_T4.1] | 0.777 µM |
| UCUCUUUGUACGCCAUCUCUU (ssRNA) [Ic_S1_P4E.1_K4.1_C4.1_H4.1_A4.1_[T5C]_[A6G]_[T7C]_F4.1_[T8C]_T4.1] | 0.0295 µM |
| UCUCUUUGUACGCAGUCUCUU (ssRNA) [Ic_S1_P4E.1_K4.1_C4.1_H4.1_A4.1_[T5C]_[A6G]_[T7C]_F4.1_[T8A]_[A9G]_T4.1] | 1.14 µM |
| UCUCUUUGUACGCACUCUCUU (ssRNA) [Ic_S1_P4E.1_K4.1_C4.1_H4.1_A4.1_[T5C]_[A6G]_[T7C]_F4.1_[T8A]_[A9C]_T4.1] | 0.669 µM |
| UCUCUUUGUACGCAUUCUCUU (ssRNA) [Ic_S1_P4E.1_K4.1_C4.1_H4.1_A4.1_[T5C]_[A6G]_[T7C]_F4.1_[T8A]_[A9T]_T4.1] | 0.425 µM |
| UCUCUUUGUACGCAAUCUCUU (ssRNA) [Ic_S1_P4E.1_K4.1_C4.1_H4.1_A4.1_[T5C]_[A6G]_[T7C]_F4.1_[T8A]_T4.1] | 0.139 µM |
| UCUCUUUGUACGCUUUCUCUU (ssRNA) [Ic_S1_P4E.1_K4.1_C4.1_H4.1_A4.1_[T5C]_[A6G]_[T7C]_F4.1_[A9T]_T4.1] | 0.051 µM |
| UCUCUUUCUAUACAUCUCUU (ssRNA) [Ib_S1_P3E.1_K3.1_C3.1_H3.1_[G2C]_A3.1_F3.1_[T7C]_T3.1] | > 2.3 µM |
| UCUCUUUGUACGAACUCUCUU (ssRNA) [Ic_S1_P4E.1_K4.1_C4.1_H4.1_A4.1_[T5C]_[A6G]_[T7A]_F4.1_[T8A]_[A9C]_T4.1] | 0.985 µM |
| UCUCUUUGUACGAUGUCUCUU (ssRNA) [Ic_S1_P4E.1_K4.1_C4.1_H4.1_A4.1_[T5C]_[A6G]_[T7A]_F4.1_[A9G]_T4.1] | 0.0238 µM |
| UCUCUUUGUACGAUUUCUCUU (ssRNA) [Ic_S1_P4E.1_K4.1_C4.1_H4.1_A4.1_[T5C]_[A6G]_[T7A]_F4.1_[A9T]_T4.1] | 0.0227 µM |
| UCUCUUUGUACGAUAUCUCUU (ssRNA) [Ic_S1_P4E.1_K4.1_C4.1_H4.1_A4.1_[T5C]_[A6G]_[T7A]_F4.1_T4.1] | 0.00275 µM |
| UCUCUUUGUACGUGCUCUCUU (ssRNA) [Ic_S1_P4E.1_K4.1_C4.1_H4.1_A4.1_[T5C]_[A6G]_F4.1_[T8G]_[A9C]_T4.1] | 0.466 µM |
